This is an account of results in EP4714972A1.

For assay [1], the target named is CD38 antigen (human-derived CD38 antigen protein) (human) (UniProt P28907). The assay can be described thus: phage ELISA on coated CD38 antigen; control well (PVA) OD 0.18.
Assay [2] has the same target. The assay can be described thus: phage ELISA on coated CD38 antigen; control well (PVA) OD 0.04. For orientation: ELISA stands for enzyme-linked immunosorbent assay.
For assay [3] the target is unchanged. The experiment in a line: phage ELISA on coated CD38 antigen; control well (PVA) OD 0.13.
For assay [4] the target is unchanged. The assay can be described thus: phage ELISA on coated CD38 antigen; control well (PVA) OD 0.05.

B1: B1 alpaca antibody (anti-CD38 single-domain antibody) (VHH)
VHH: QVQLVESGGGEVQPGGSLRLSCTASGFRLDYYAIGWFRRAPGKEREGIACIDITGIHTNYGDSVMGRFTISRDDRAVYLQMNNLEAGDTAIYYCAPARFSACSALDVKLSFTSWGQGTQVTVSS
For the molecule B1, the OD value of the antigen well (Pro) in assay [1] amounted to 0.65 OD.

B2: B2 alpaca antibody (anti-CD38 single-domain antibody) (VHH)
VHH: QVQLVESGGGLVQPGGSLTLSCRASGFTLDYYAIGWFRQAPGKEREAIACIDITGFHTNYGDSVSGRFTISRDNAGTTVYLQMNSLEAEDTGIYYCAPARYAACSALDVKLSFTSWGQGTQVTVSS
Molecule B2 returned an OD value of the antigen well (Pro) in assay [1] of 1.07 OD.

B3: B8 alpaca antibody (anti-CD38 single-domain antibody) (VHH)
VHH: QVQLVESGGGLVQPGGSLRLSCTASGFRLDYYAIGWFRQAPGKEREAIACIDITGFHTNYGDSVSGRFTISRDNAGTTVYLQMNSLEAEDTGIYYCAPARYAACSALDVKLSFTSWGQGTQVTVSS
For the molecule B3, in assay [2], the OD value of the antigen well (Pro) is 1.77 OD.

B4: B5 alpaca antibody (anti-CD38 single-domain antibody) (VHH)
VHH: QVQLVESGGGLVQPGGSLRLSCTASGFRLDYYAIGWFRQAPGKEREAISCIDITGMHTNYGDSVMGRFTISRDDAKRTVYLQMNSLEAEDTGIYYCAPAQYAACSALGVKVSFTSWGQGTQVTVSP
As for B4, the OD value of the antigen well (Pro) in assay [3] is 0.89 OD.

B5: B3 alpaca antibody (anti-CD38 single-domain antibody) (VHH)
VHH: QVQLVESGGGLVQAGGSLRLACTASGNIFASQVMNWYRQAPGSPRELVATITPGGRTTYADSAKGRFTVATDNAKATAYLQLTSLTPEDTGVYYCHVRLFPATDYWGQGTQVTVSS
In assay [4], B5 displayed an OD value of the antigen well (Pro) of 0.15 OD.
